Here are results for 1 molecule from patent US20250127877A1 (University of Washington, published 2025).

The test concerns the target TH-A/New Caledonia/20/1999_2GCN_dn5b (203L/210D/212V/216I) (influenza A virus A/New …). Nature of the test: in vitro nanoparticle assembly, purified nanoparticles seen by cryo-EM.

B1: I53_dn5A.1 (other)
chain: MGKYDGSKLRIGILHARGNAEIILALVLGALKRLQEFGVKRENIIIETVPGSFELPYGSKLFVEKQKRLGKPLDAIIPIGVLIRGSTPHFDYIADSTTHQLMKLNFELGIPVIFGVITADTDEQAEARAGLIEGKMHNHGEDWGAAAVEMATKFN
For B1, the binding result is “binds”.
